Measurements reported in paper PMC3834070.

What was measured:
[1] = molecular target: T1, FpPG.K310T (Fusarium phyllophilum) (UniProt Q07181)
T1 sequence: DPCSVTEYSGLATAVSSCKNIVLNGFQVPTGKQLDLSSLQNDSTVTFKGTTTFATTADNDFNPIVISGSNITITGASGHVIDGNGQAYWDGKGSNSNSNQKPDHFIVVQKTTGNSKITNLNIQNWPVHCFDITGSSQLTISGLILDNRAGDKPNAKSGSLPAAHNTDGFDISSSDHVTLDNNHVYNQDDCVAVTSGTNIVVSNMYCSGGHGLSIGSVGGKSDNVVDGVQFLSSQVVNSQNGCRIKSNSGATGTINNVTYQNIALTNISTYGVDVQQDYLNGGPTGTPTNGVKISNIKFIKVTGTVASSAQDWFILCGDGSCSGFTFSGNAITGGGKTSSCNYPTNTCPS

[2] = molecular target: T2, FpPG.L303E (Fusarium phyllophilum) (UniProt Q07181)
T2 sequence: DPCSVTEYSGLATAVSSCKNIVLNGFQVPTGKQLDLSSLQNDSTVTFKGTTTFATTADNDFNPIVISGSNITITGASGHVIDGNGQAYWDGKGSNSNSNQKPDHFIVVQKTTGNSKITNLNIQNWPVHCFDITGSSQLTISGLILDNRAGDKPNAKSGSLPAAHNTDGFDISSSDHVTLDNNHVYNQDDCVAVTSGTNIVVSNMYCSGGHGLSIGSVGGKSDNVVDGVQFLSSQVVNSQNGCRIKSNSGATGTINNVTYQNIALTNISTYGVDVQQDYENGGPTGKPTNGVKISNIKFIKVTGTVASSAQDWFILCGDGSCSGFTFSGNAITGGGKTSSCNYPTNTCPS

[3] = molecular target: T3, FpPG.S363K (Fusarium phyllophilum) (UniProt Q07181)
T3 sequence: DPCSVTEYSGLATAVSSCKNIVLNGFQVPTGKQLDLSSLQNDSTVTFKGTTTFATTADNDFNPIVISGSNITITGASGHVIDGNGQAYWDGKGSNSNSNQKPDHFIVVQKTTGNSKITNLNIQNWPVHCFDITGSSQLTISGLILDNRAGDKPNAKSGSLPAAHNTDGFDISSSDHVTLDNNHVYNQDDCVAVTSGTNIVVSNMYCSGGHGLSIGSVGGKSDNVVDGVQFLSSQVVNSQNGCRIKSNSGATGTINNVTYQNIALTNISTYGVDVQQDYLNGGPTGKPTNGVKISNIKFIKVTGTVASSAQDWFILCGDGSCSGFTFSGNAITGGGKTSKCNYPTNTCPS

[4] = molecular target: Polygalacturonase 1 of Colletotrichum lupini (CluPG1) strain SHK78813 (Colletotrichum lupini)
[5] = molecular target: T4, polygalacturonase of Fusarium phyllophilum (FpPG) (Fusarium phyllophilum) (UniProt Q07181)
T4 sequence: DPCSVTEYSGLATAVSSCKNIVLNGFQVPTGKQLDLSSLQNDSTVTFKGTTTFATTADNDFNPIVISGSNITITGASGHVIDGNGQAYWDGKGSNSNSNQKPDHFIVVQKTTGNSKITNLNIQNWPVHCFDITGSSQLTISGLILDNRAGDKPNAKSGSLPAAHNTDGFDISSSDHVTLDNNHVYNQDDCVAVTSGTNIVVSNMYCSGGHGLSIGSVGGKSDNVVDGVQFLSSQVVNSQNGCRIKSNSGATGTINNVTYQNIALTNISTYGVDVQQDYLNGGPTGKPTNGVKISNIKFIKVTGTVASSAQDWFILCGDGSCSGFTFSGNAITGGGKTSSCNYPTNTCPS

[6] = molecular target: T5, FpPG.A274T (Fusarium phyllophilum) (UniProt Q07181)
T5 sequence: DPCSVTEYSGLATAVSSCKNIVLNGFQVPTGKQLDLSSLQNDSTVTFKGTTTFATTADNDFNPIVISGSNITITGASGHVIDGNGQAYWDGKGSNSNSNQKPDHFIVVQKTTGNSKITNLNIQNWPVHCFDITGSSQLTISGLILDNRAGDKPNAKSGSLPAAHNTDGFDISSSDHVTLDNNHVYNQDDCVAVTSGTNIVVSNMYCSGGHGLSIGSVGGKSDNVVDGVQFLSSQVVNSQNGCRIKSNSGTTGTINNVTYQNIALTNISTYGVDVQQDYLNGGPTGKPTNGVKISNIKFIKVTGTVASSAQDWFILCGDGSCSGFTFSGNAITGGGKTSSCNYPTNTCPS

[7] = molecular target: T6, FpPG.S120N-N121K-S122D (Fusarium phyllophilum) (UniProt Q07181)
T6 sequence: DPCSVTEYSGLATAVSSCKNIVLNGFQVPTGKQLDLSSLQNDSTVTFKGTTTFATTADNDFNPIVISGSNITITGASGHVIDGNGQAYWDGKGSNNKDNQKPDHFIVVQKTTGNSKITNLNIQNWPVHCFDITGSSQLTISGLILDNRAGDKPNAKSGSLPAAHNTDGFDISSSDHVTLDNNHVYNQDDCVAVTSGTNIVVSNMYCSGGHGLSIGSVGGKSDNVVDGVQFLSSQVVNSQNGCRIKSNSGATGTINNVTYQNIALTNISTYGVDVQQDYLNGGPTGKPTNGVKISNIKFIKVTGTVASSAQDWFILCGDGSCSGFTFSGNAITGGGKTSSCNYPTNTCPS

Row | Binder | amount of PGIP causing 50% inhibition of one agarose diffusion unit of the PG (agar diffusion assay) [1] [pg] | amount of PGIP causing 50% inhibition of one agarose diffusion unit of the PG (agar diffusion assay) [2] [pg] | amount of PGIP causing 50% inhibition of one agarose diffusion unit of the PG (agar diffusion assay) [3] [pg] | amount of PGIP causing 50% inhibition of one agarose diffusion unit of the PG (agar diffusion assay) [4] [pg] | amount of PGIP causing 50% inhibition of one agarose diffusion unit of the PG (agar diffusion assay) [5] [pg] | fold loss of inhibition by PvPGIP2 against wild type FpPG, agar diffusion assay (Figure 5A) [6] [fold] | fold reduction of the efficiency of inhibition by PvPGIP2 against wild type FpPG, agar diffusion assay (Figure 5A) [7] [fold] | amount of PGIP causing 50% inhibition of one agarose diffusion unit of the PG (agar diffusion assay); ∞ indicates > 1500 ng [1] [pg] | amount of PGIP causing 50% inhibition of one agarose diffusion unit of the PG (agar diffusion assay); ∞ indicates > 1500 ng [3] [pg] | amount of PGIP causing 50% inhibition of one agarose diffusion unit of the PG (agar diffusion assay); ∞ indicates > 1500 ng [5] [pg]
1 | PG-inhibiting protein 2 of Phaseolus vulgaris pv Pinto (PvPGIP2) (natural protein) ELCNPQDKQALLQIKKDLGNPTTLSSWLPTTDCCNRTWLGVLCDTDTQTYRVNNLDLSGLNLPKPYPIPSSLANLPYLNFLYIGGINNLVGPIPPAIAKLTQLHYLYITHTNVSGAIPDFLSQIKTLVTLDFSYNALSGTLPPSISSLPNLVGITFDGNRISGAIPDSYGSFSKLFTSMTISRNRLTGKIPPTFANLNLAFVDLSRNMLEGDASVLFGSDKNTQKIHLAKNSLAFDLGKVGLSKNLNGLDLRNNRIYGTLPQGLTQLKFLHSLNVSFNNLCGEIPQGGNLQRFDVSAYANNKCLCGSPLPACT | 2000 | 2000 | 2000 | 2500 | 2000 | 150 | 25 |  |  | 
2 | PvPGIP2.Q224K (natural protein) ELCNPQDKQALLQIKKDLGNPTTLSSWLPTTDCCNRTWLGVLCDTDTQTYRVNNLDLSGLNLPKPYPIPSSLANLPYLNFLYIGGINNLVGPIPPAIAKLTQLHYLYITHTNVSGAIPDFLSQIKTLVTLDFSYNALSGTLPPSISSLPNLVGITFDGNRISGAIPDSYGSFSKLFTSMTISRNRLTGKIPPTFANLNLAFVDLSRNMLEGDASVLFGSDKNTKKIHLAKNSLAFDLGKVGLSKNLNGLDLRNNRIYGTLPQGLTQLKFLHSLNVSFNNLCGEIPQGGNLQRFDVSAYANNKCLCGSPLPACT |  | 20000 |  | 2500 |  |  |  | > 1.5e+06 | > 1.5e+06 | > 1.5e+06
3 | PvPGIP2.Q224E (natural protein) ELCNPQDKQALLQIKKDLGNPTTLSSWLPTTDCCNRTWLGVLCDTDTQTYRVNNLDLSGLNLPKPYPIPSSLANLPYLNFLYIGGINNLVGPIPPAIAKLTQLHYLYITHTNVSGAIPDFLSQIKTLVTLDFSYNALSGTLPPSISSLPNLVGITFDGNRISGAIPDSYGSFSKLFTSMTISRNRLTGKIPPTFANLNLAFVDLSRNMLEGDASVLFGSDKNTEKIHLAKNSLAFDLGKVGLSKNLNGLDLRNNRIYGTLPQGLTQLKFLHSLNVSFNNLCGEIPQGGNLQRFDVSAYANNKCLCGSPLPACT | 2000 | 2000 | 2000 | 1100 | 2000 |  |  |  |  | 
